# Source: US20250043026A1 (SHANGHAI BAO PHARMACEUTICALS, published 2025)
# T1: FcγRIIb (Acro Biosystems) (UniProt P31994 46-217, limits assumed)
# T1 sequence (looked up): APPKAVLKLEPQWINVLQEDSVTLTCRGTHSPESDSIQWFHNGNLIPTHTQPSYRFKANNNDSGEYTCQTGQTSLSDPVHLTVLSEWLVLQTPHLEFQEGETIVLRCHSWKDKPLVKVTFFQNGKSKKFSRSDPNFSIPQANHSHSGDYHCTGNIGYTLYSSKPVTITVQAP
# T2: FcγRIIa-131R (Acro Biosystems) (UniProt P12318 36-218, limits assumed)
# T2 construct: The 131H/R allotypes are those of the human receptor
# T2 sequence (looked up): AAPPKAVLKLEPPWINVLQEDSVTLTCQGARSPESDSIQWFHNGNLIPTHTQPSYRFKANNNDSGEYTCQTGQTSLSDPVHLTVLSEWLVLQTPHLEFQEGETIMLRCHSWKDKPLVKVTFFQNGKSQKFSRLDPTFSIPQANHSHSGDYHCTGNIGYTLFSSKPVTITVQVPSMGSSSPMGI
# T3: FcγRIIa-131H (Acro Biosystems) (UniProt P12318 36-218, limits assumed)
# T3 construct: The 131H/R allotypes are those of the human receptor
# T3 sequence (looked up): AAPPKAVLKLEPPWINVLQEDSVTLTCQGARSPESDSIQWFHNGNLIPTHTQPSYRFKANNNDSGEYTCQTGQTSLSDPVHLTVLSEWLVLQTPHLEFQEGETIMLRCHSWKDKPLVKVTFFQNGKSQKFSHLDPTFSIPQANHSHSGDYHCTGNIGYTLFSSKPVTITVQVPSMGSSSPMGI
# B1: Fc variant m5 (other)
# chain: DKTHTCPPCPAPELLGGPSVFLFPPKPKDTLYITREPEVTCVVVDVSHEDPEVKFNWYVDGVEVHNAKTKPREQYNSTYRVVSVLTVLHQDWLNGKEYKCKVSNKALPAPIEKTISKAKGQPREPQVYTLPPSRDELTKNQVSLTCLVKGFYPSDIAVEWESNGQPENNYKTTPPVLDSDGSFFLYSKLTVDKSRWQQGNVFSCSVMHEALKFHYTQKSLSLSP
# modifications: N-glycan with 2,6-sialic acid (variant co-expressed with human GT and ST in ExpiCHO-S cells)
# notes: Fc fragment variant of IgG1
# B2: Fc variant m1 (other)
# chain: DKTHTCPPCPAPELLGGPSVFLFPPKPKDTLYITREPEVTCVVVDVSHEDPEVKFNWYVDGVEVHNAKTKPREEQYNSTYRVVSVLTVLHQDWLNGKEYKCKVSNKALPAPIEKTISKAKGQPREPQVYTLPPSRDELTKNQVSLTCLVKGFYPSDIAVEWESNGQPENNYKTTPPVLDSDGSFFLYSKLTVDKSRWQQGNVFSCSVMHEALKFHYTQKSLSLSP
# modifications: N-glycan with 2,6-sialic acid (variant co-expressed with human GT and ST in ExpiCHO-S cells)
# notes: also called control m1
# B3: Fc variant m10 (other)
# chain: DKTHTCPPCPAPELLGGPSVFLFPPKPKDTLYITREPEVTCVVVDVSHEDPEVKFNWYVDGVEVHNAKTKPREEQYNNASRVVSVLTVLHQDWLNGKEYKCKVSNKALPAPIEKTISKAKGQPREPQVYTLPPSRDELTKNQVSLTCLVKGFYPSDIAVEWESNGQPENNYKTTPPVLDSDGSFFLYSKLTVDKSRWQQGNVFSCSVMHEALKFHYTQKSLSLSP
# notes: Fc fragment variant of IgG1, co-expressed with human GT and ST
# B4: Fc variant m7 (other)
# chain: DKTHTCPPCPAPELLGGPSVFLFPPKPKDTLYITREPEVTCVVEDVSHEDPEVKFNWYVDGVEVHNAKTKPREEQYNSTYRVVSVLTVLHQDWLNGKEYKCKVSNKALPAPIEKTISKAKGQPREPQVYTLPPSRDELTKNQVSLTCLVKGFYPSDIAVEWESNGQPENNYKTTPPVLDSDGSFFLYSKLTVDKSRWQQGNVFSCSVMHEALKFHYTQKSLSLSP
# modifications: N-glycan with 2,6-sialic acid (variant co-expressed with human GT and ST in ExpiCHO-S cells)
# notes: Fc fragment variant of IgG1
# B5: Fc variant m9 (other)
# chain: DKTHTCPPCPAPELLGGPSVFLFPPKPKDTLYITREPEVTCVVVDVSHEDPEVKFNWYVDGVEVHNAKTKPREEQNASTYRVVSVLTVLHQDWLNGKEYKCKVSNKALPAPIEKTISKAKGQPREPQVYTLPPSRDELTKNQVSLTCLVKGFYPSDIAVEWESNGQPENNYKTTPPVLDSDGSFFLYSKLTVDKSRWQQGNVFSCSVMHEALKFHYTQKSLSLSP
# notes: as for B3
# Experiments:
# FcRn (Acro Biosystems) = FcRn (Acro Biosystems) (human, UniProt P55899 24-297; P61769 21-119); experiment: BLI (Fortebio), FcRn loaded on HIS1K probe, pH 7.0
# Experimental: (§1) The variant proteins were tested for affinity to FcRn at pH 7.0. The affinity of the antibody fragment for the receptor was determined using Fortebio. FcRn (Acro Biosystems) was loaded at 0.8 nm with an HIS1K probe, bound to the variant protein at various concentrations for 60 seconds and dissociated for 300 seconds.
# [1] = target: T1, FcγRIIb (Acro Biosystems); experiment: BLI (Fortebio), FcγR loaded on HIS1K probe, pH 7.0
# Experimental: as §1, with “to FcγRI, FcγRIIa-131H, FcγRIIa-131R, FcγRIIb, FcγRIIIa-158F, FcγRIIIa-158V” for “to FcRn”, “Fortebio. Different FcγR” for “Fortebio. FcRn”, “at 0.5” for “at 0.8”, “for 60” for “for 300”
# [2] = target: T4, FcγRIIIa-158F (Acro Biosystems) (UniProt P08637 17-208); experiment: BLI (Fortebio), FcγR loaded on HIS1K probe, pH 7.0
# T4 construct: The 158V/F allotypes are those of the human receptor
# T4 sequence (P08637 17-208 limits assumed): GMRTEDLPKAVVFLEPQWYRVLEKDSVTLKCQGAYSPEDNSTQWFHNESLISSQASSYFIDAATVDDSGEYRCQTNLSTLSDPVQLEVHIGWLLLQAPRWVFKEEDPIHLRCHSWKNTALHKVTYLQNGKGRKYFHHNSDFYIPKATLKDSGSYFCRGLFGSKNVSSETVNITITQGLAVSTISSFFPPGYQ
# Experimental: as §1, with “to FcγRI, FcγRIIa-131H, FcγRIIa-131R, FcγRIIb, FcγRIIIa-158F, FcγRIIIa-158V” for “to FcRn”, “Fortebio. Different FcγR” for “Fortebio. FcRn”, “at 0.5” for “at 0.8”, “for 60” for “for 300”
# [3] = target: T2, FcγRIIa-131R (Acro Biosystems); experiment: BLI (Fortebio), FcγR loaded on HIS1K probe, pH 7.0
# Experimental: as §1, with “to FcγRI, FcγRIIa-131H, FcγRIIa-131R, FcγRIIb, FcγRIIIa-158F, FcγRIIIa-158V” for “to FcRn”, “Fortebio. Different FcγR” for “Fortebio. FcRn”, “at 0.5” for “at 0.8”, “for 60” for “for 300”
# FcγRI (Acro Biosystems) [4] = target: T5, FcγRI (Acro Biosystems) (UniProt P12314 16-288, limits assumed); experiment: BLI (Fortebio), FcγR loaded on HIS1K probe, pH 7.0
# T5 construct: also called CD64
# T5 sequence (P12314 16-288 limits assumed): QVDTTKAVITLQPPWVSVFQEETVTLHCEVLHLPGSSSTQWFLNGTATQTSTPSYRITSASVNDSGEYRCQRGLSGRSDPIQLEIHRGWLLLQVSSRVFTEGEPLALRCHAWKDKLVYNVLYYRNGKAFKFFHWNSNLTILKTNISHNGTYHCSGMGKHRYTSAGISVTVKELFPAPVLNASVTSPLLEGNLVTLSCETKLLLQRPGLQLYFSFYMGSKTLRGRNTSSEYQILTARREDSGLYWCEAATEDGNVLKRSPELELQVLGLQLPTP
# Experimental: as §1, with “to FcγRI, FcγRIIa-131H, FcγRIIa-131R, FcγRIIb, FcγRIIIa-158F, FcγRIIIa-158V” for “to FcRn”, “Fortebio. Different FcγR” for “Fortebio. FcRn”, “at 0.5” for “at 0.8”, “for 60” for “for 300”
# [5] = target: T6, FcγRIIIa-158V (Acro Biosystems) (UniProt P08637 17-208); experiment: BLI (Fortebio), FcγR loaded on HIS1K probe, pH 7.0
# T6 construct: The 158V/F allotypes are those of the human receptor
# T6 sequence (P08637 17-208 F176V limits assumed): as the sequence (P08637 17-208 limits assumed) above, with F160V counted along it
# Experimental: as §1, with “to FcγRI, FcγRIIa-131H, FcγRIIa-131R, FcγRIIb, FcγRIIIa-158F, FcγRIIIa-158V” for “to FcRn”, “Fortebio. Different FcγR” for “Fortebio. FcRn”, “at 0.5” for “at 0.8”, “for 60” for “for 300”
# [6] = target: T3, FcγRIIa-131H (Acro Biosystems); experiment: BLI (Fortebio), FcγR loaded on HIS1K probe, pH 7.0
# Experimental: as §1, with “to FcγRI, FcγRIIa-131H, FcγRIIa-131R, FcγRIIb, FcγRIIIa-158F, FcγRIIIa-158V” for “to FcRn”, “Fortebio. Different FcγR” for “Fortebio. FcRn”, “at 0.5” for “at 0.8”, “for 60” for “for 300”
# FcγRI (Acro Biosystems) [7] = target: T5, FcγRI (Acro Biosystems); experiment: BLI (Fortebio), ratio of KD against m1
# Experimental: as §1, with “to FcγRI, FcγRIIa-131H, FcγRIIa-131R, FcγRIIb, FcγRIIIa-158F, FcγRIIIa-158V” for “to FcRn”, “Fortebio. Different FcγR” for “Fortebio. FcRn”, “at 0.5” for “at 0.8”, “for 60” for “for 300”
kon (FcRn (Acro Biosystems)),Kd (FcγRI (Acro Biosystems) [4]),other results,Binder
347000 M⁻¹ s⁻¹,,,B1
214000 M⁻¹ s⁻¹,0.316 µM,Kd [1]: 10.7 µM; Kd [2]: 7.21 µM; Kd [3]: 2.05 µM; Kd [5]: 1.71 µM; Kd [6]: 2.56 µM,B2
221000 M⁻¹ s⁻¹,,,B3
221000 M⁻¹ s⁻¹,0.0638 µM,Fold change of m7 relative to m1 (FcγRI (Acro Biosystems) [7]): 4.95 fold,B4
208000 M⁻¹ s⁻¹,,,B5
